Three molecules from publication PMC7747717 (Nature Communications, 2020) can be followed below.

Holding throughout (experiment): cryo-EM structure; endogenous human Pol III purified from HeLa POLR1C-GFP cells, not cross-linked, apo, 4.0 Å
What all share (settings): both partners purified

Assay [1] addresses RPABC1, subunit of purified human Pol III (human (endogenous in HeLa), UniProt P19388 1-210).
The target in assay [2] is T1, RPC5, subunit of purified human Pol III (human (endogenous in HeLa), UniProt Q9NVU0 1-708).
T1 construct: RPC5, subunit of the TFIIF-like RPC4/5 heterodimer of RNA polymerase III, human, endogenous; the C-terminal extension (RPC5EXT) was not visible in the EM map; also called POLR3E; source: endogenous, HeLa, purified within Pol III
T1 sequence (looked up): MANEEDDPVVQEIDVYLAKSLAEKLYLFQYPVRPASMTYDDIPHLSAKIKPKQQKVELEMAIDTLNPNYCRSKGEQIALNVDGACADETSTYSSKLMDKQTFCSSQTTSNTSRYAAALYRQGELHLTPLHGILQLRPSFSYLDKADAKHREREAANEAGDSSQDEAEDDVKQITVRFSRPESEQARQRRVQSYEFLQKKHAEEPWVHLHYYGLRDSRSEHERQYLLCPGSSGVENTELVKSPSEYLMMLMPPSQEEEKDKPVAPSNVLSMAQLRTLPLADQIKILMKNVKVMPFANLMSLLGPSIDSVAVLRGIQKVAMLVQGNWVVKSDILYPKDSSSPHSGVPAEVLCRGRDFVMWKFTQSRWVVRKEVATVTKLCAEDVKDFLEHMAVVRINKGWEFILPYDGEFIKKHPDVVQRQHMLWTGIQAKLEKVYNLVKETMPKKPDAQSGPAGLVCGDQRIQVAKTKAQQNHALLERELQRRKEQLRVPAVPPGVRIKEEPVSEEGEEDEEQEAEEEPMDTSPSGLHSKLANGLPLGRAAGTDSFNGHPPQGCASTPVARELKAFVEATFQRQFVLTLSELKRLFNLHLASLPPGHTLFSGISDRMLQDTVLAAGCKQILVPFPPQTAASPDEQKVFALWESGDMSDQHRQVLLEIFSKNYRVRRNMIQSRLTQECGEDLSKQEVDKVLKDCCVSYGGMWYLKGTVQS

Assay [3] has as its target T2, RPC8, stalk subunit of purified human Pol III (human (endogenous in HeLa), UniProt Q9Y535 1-204).
T2 construct: RPC8, stalk subunit of RNA polymerase III, human, endogenous; source: endogenous, HeLa, purified within Pol III
T2 sequence (looked up): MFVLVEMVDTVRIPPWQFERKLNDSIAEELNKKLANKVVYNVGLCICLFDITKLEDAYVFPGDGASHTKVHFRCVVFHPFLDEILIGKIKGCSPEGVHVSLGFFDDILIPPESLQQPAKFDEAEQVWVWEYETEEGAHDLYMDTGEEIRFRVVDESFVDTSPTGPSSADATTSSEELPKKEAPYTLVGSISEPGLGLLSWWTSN

B1: RPC1, largest subunit of purified human Pol III (natural protein)
chain: MVKEQFRETDVAKKISHICFGMKSPEEMRQQAHIQVVSKNLYSQDNQHAPLLYGVLDHRMGTSEKDRPCETCGKNLADCLGHYGYIDLELPCFHVGYFRAVIGILQMICKTCCHIMLSQEEKKQFLDYLKRPGLTYLQKRGLKKKISDKCRKKNICHHCGAFNGTVKKCGLLKIIHEKYKTNKKVVDPIVSNFLQSFETAIEHNKEVEPLLGRAQENLNPLVVLNLFKRIPAEDVPLLLMNPEAGKPSDLILTRLLVPPLCIRPSVVSDLKSGTNEDDLTMKLTEIIFLNDVIKKHRISGAKTQMIMEDWDFLQLQCALYINSELSGIPLNMAPKKWTRGFVQRLKGKQGRFRGNLSGKRVDFSGRTVISPDPNLRIDEVAVPVHVAKILTFPEKVNKANINFLRKLVQNGPEVHPGANFIQQRHTQMKRFLKYGNREKMAQELKYGDIVERHLIDGDVVLFNRQPSLHKLSIMAHLARVKPHRTFRFNECVCTPYNADFDGDEMNLHLPQTEEAKAEALVLMGTKANLVTPRNGEPLIAAIQDFLTGAYLLTLKDTFFDRAKACQIIASILVGKDEKIKVRLPPPTILKPVTLWTGKQIFSVILRPSDDNPVRANLRTKGKQYCGKGEDLCANDSYVTIQNSELMSGSMDKGTLGSGSKNNIFYILLRDWGQNEAADAMSRLARLAPVYLSNRGFSIGIGDVTPGQGLLKAKYELLNAGYKKCDEYIEALNTGKLQQQPGCTAEETLEALILKELSVIRDHAGSACLRELDKSNSPLTMALCGSKGSFINISQMIACVGQQAISGSRVPDGFENRSLPHFEKHSKLPAAKGFVANSFYSGLTPTEFFFHTMAGREGLVDTAVKTAETGYMQRRLVKSLEDLCSQYDLTVRSSTGDIIQFIYGGDGLDPAAMEGKDEPLEFKRVLDNIKAVFPCPSEPALSKNELILTTESIMKKSEFLCCQDSFLQEIKKFIKGVSEKIKKTRDKYGINDNGTTEPRVLYQLDRITPTQVEKFLETCRDKYMRAQMEPGSAVGALCAQSIGEPGTQMTLKTFHFAGVASMNITLGVPRIKEIINASKAISTPIITAQLDKDDDADYARLVKGRIEKTLLGEISEYIEEVFLPDDCFILVKLSLERIRLLRLEVNAETVRYSICTSKLRVKPGDVAVHGEAVVCVTPRENSKSSMYYVLQFLKEDLPKVVVQGIPEVSRAVIHIDEQSGKEKYKLLVEGDNLRAVMATHGVKGTRTTSNNTYEVEKTLGIEAARTTIINEIQYTMVNHGMSIDRRHVMLLSDLMTYKGEVLGITRFGLAKMKESVLMLASFEKTADHLFDAAYFGQKDSVCGVSECIIMGIPMNIGTGLFKLLHKADRDPNPPKRPLIFDTNEFHIPLVT
notes: RPC1, largest subunit of RNA polymerase III, human, endogenous; also called POLR3A; source: endogenous, HeLa, purified within Pol III
Turning to B1, in assay [1], the binding result is reported as “binds”.

B2: RPC4, subunit of purified human Pol III (natural protein, human (endogenous in HeLa), UniProt P05423 1-398, looked up)
chain: MSEGNAAGEPSTPGGPRPLLTGARGLIGRRPAPPLTPGRLPSIRSRDLTLGGVKKKTFTPNIISRKIKEEPKEEVTVKKEKRERDRDRQREGHGRGRGRPEVIQSHSIFEQGPAEMMKKKGNWDKTVDVSDMGPSHIINIKKEKRETDEETKQILRMLEKDDFLDDPGLRNDTRNMPVQLPLAHSGWLFKEENDEPDVKPWLAGPKEEDMEVDIPAVKVKEEPRDEEEEAKMKAPPKAARKTPGLPKDVSVAELLRELSLTKEEELLFLQLPDTLPGQPPTQDIKPIKTEVQGEDGQVVLIKQEKDREAKLAENACTLADLTEGQVGKLLIRKSGRVQLLLGKVTLDVTMGTACSFLQELVSVGLGDSRTGEMTVLGHVKHKLVCSPDFESLLDHKHR
notes: RPC4, subunit of the TFIIF-like RPC4/5 heterodimer of RNA polymerase III, human, endogenous; also called POLR3D; source: endogenous, HeLa, purified within Pol III
With B2, the binding result in assay [2] is listed as “binds”.

B3: RPC9, stalk subunit of purified human Pol III (natural protein)
chain: not shown
notes: RPC9, stalk subunit of RNA polymerase III, human, endogenous; source: endogenous, HeLa, purified within Pol III
For the molecule B3, the binding result in assay [3] is recorded as “binds”.
